These results are taken from publication doi:10.1101/2021.11.20.466133.

The term stoichiometry N denotes the number of molecules, sites or subunits per partner or assembly.

For test [1], the target named is MsDisA_(1-158) (only N-terminal domain-1) (Mycobacterium smegmatis mc2155). The test can be described thus: SEC-MALS. For orientation: In gel filtration, larger molecules generally elute earlier.
In test [2] the target is MsDisA_(1-316) (domains 1 and 2) (Mycobacterium smegmatis mc2155). The test can be described thus: SEC-MALS.
The target of test [3] is MsDisA_(132-372) (domains 2 and 3) (Mycobacterium smegmatis mc2155). In words: SEC-MALS.
Test [4] concerns the target Mycobacterium smegmatis DNA integrity scanning protein (MsDisA), c-di-AMP synthase (Mycobacterium smegmatis mc2155). The test can be described thus: cryo-EM structure.
For test [5] the target is unchanged. The test can be described thus: negative-stain TEM.
Test [6] shares this target. The test can be described thus: SEC-MALS.

For the substance “MsDisA_(1-158) (only N-terminal domain-1) (domain or fragment)”, the stoichiometry N in test [1] is 8.

With “MsDisA_(1-316) (domains 1 and 2) (domain or fragment)”, the stoichiometry N in test [2] is 8.

Substance “MsDisA_(132-372) (domains 2 and 3) (domain or fragment)” registered a stoichiometry N in test [3] of 2.

Regarding “Mycobacterium smegmatis DNA integrity scanning protein (MsDisA), c-di-AMP synthase (enzyme)”, the stoichiometry N in test [4], in test [5] and in test [6] was 8 in each case.
